Experimental data from patent publication US20200330603A1, “PEPTIDES FOR RENAL THERAPY” (FRED HUTCHINSON CANCER RESEARCH CENTER, priority 2015, published 2020).
Several values for one entry are separate records, joined by “and”; a condition that tells them apart may be missing. Equal values may be shown once. Ends that are not written are not given here.

Legend:
[1] = Plasma BUN, assessment of renal injury (Example 14); format: in vivo, mice
Method: (§1) This example illustrates assessment of renal injury by peptides of this disclosure. Mice were injected intravenously at a dose of 100 nmol, which is approximately 16 mg/kg. PBS was administered as a negative control. At 24 hours post-peptide administration, mice were euthanized and plasma blood urea nitrogen (BUN) and plasma creatinine were measured. The blood urea nitrogen (BUN) assay was performed to assess renal toxicity with a commercially available kit. Plasma creatinine concentrations were determined using the colorimetrically corrected Jaffe reaction method. Additionally, the kidneys from these mice were removed, sectioned, and stained using periodic acid Schiff (PAS). […] Histological analysis corroborated the mRNA/protein data.

[2] = Blood urea nitrogen (BUN) assay in plasma, renal biocompatibility (Example 4); format: in vivo, mice; details: 100 nmol per mouse intravenously, after 24 hours, one value per mouse
Method: This example describes renal biocompatibility of peptides of this disclosure. The peptides of SEQ ID NO: 18, SEQ ID NO: 20, SEQ ID NO: 21, SEQ ID NO: 26, SEQ ID NO: 36, SEQ ID NO: 39, SEQ ID NO: 45 and SEQ ID NO: 53 were intravenously dosed into mice at 100 nmol per mouse. After 24 hours, mice were anesthesized with Ketamine-Xylazine and euthanized. Plasma and kidneys were removed as quickly as possible after euthanization. A blood urea nitrogen (BUN) assay was performed to assess renal toxicity with a commercially available kit.
The average BUN concentration in plasma for naïve mice was 25 mg/dL, with a standard error of 2 mg/dL. The average BUN concentration in plasma for peptide-dosed mice was 21, with a standard error of 1 mg/dL.

[3] = Kidney histology, periodic acid Schiff (PAS) stain; format: in vivo, mice; details: 24 hours after intravenous administration of 100 nmol
Method: as §1

[4] = Plasma creatinine, Jaffe reaction method (Example 14); format: in vivo, mice; details: 100 nmol iv
Method: as §1

[5] = Temperature stability at 70° C., RP-HPLC; format: physicochemical; details: non-reducing conditions, 70° C. for 1 hour
Method: (§2) This example describes peptide stability in the presence of pepsin, trypsin, a reducing agent, or elevated temperature. Peptides were first suspended in 500 µl of ddH2O to a stock concentration of 2 mg/ml. […] These reactions were then quenched with 5 μg of soybean trypsin inhibitor (I) and, in some cases, 10 mM dithiothreitol (DTT). […] Temperature stability was tested by incubating peptides in non-reducing conditions at 70° C. for 1 hour. Stability was evaluated by RP-HPLC.

trypsin = test: Peptide stability in the presence of trypsin, RP-HPLC; format: in vitro ADME; details: 5 μg trypsin, pH 7.0, 30 minutes at 37.5° C.
Method: as §2

pepsin = test: Peptide stability in the presence of pepsin, RP-HPLC; format: in vitro ADME; details: 20 μg pepsin, pH 1.05, 30 minutes at 37.5° C.
Method: as §2

[6] = Peptide stability to a reducing agent (DTT), RP-HPLC; format: physicochemical; details: 10 mM DTT in PBS, room temperature, 30 minutes
Method: as §2

TNFa mRNA = test: Stress-induced mRNA by RT-PCR, TNFa; format: in vivo, mice; details: four hours post-peptide administration
Method: (§3) At four hours post-peptide administration, potential renal injury was assessed by measuring three stress-induced mRNAs (MCP-1, NGAL, and TNFa).

HO-1 mRNA = test: mRNA by RT-PCR, HO-1; format: in vivo, mice; details: four hours post-peptide administration
[7] = Whole body autoradiography of 14C labeled peptides, renal cortex and blood; format: in vivo, mice
Description: This example describes radiolabeling of peptides of this disclosure. Several knotted peptides were radiolabeled by reductive methylation with ^14C formaldehyde and sodium cyanoborohydride with standard techniques. The sequences were engineered to have the amino acids, “G” and “S” at the N terminus. See Methods in Enzymology V91:1983 p. 570 and JBC 254(11):1979 p. 4359. An excess of formaldehyde was used to ensure complete methylation (dimethylation of every free amine). The labeled peptides were isolated via solid-phase extraction on Strata-X columns (Phenomenex 8B-S100-AAK), rinsed with water with 5% methanol, and recovered in methanol with 2% formic acid. Solvent was subsequently removed in a blowdown evaporator with gentle heat and a stream of nitrogen gas. The final product was verified and characterized by high performance liquid chromatography (HPLC).
This example illustrates accumulation of peptides of the present disclosure in kidneys measured by whole body autoradiography. Peptides of the present disclosure were radiolabeled as described in EXAMPLE 2. 100 nmol of ^14C labeled peptides were administered intravenously in mice. Radiolabeled peptide signal was quantified in the renal cortex and blood from the ventricle in 2-3 sections per mouse in 2 mice total. Whole body autoradiography analysis was performed with AIDA.
SEQ ID NO: 55 and SEQ ID NO: 119 ([…]), a linearized version of SEQ ID NO: 55, were radiolabeled with ^14C as described in EXAMPLE 2 and administered intravenously in mice at a dose of 100 nmol. Radiolabeled peptide signal was quantified in the renal cortex and blood from the ventricle in 2-3 sections per mouse in 2 mice total. Whole body autoradiography analysis was performed with AIDA.

NGAL mRNA = test: Stress-induced mRNA by RT-PCR, NGAL; format: in vivo, mice; details: four hours post-peptide administration
Method: as §3

MCP-1 mRNA = test: Stress-induced mRNA by RT-PCR, MCP-1; format: in vivo, mice; details: four hours post-peptide administration
Method: as §3

[8] = Competitive renal uptake studies, fluorescence imaging of whole organs; format: in vivo, mice; details: 2 nmol SEQ ID NO: 4-AF647 co-injected with 100 or 2000 nmol competitor, 1 hour
Method: This example describes competitive uptake studies of peptides of this disclosure in kidneys. Peptides of this disclosure were compared to known kidney homers (“competitors”) to assess the efficiency and strength of kidney targeting. Three competitors were tested against a peptide of SEQ ID NO: 4, and kidney uptake was quantified by fluorescence imaging of whole organs on a Spectrum IVIS imager.
Kidneys from uninjected mice were used as a negative control. Fluorescence signal in each group was quantified to determine the average radiant efficiency in the kidneys from three mice per cohort. Data are shown as mean and error bars indicate standard deviation. A p-value of 0.0081 was calculated by a T-test, and the error bars indicate standard deviation. In this experiment, the unlabeled SEQ ID NO: 4 peptide competed with the SEQ ID NO: 4-AF647 as shown by decreased fluorescence and thus, decreased accumulation of the dye labeled peptide in the kidney. […] Fluorescence signal in each group was quantified to determine the average radiant efficiency in the kidneys from three mice per cohort. Data are shown as mean and error bars indicate standard deviation. Kidney uptake of a peptide of SEQ ID NO: 4-AF647 was not dampened by SEQ ID NO: 121 peptide even at the highest ratio of competitor. […] Fluorescence signal in each group was quantified to determine the average radiant efficiency in the kidneys from three mice per cohort. Data are shown as mean and error bars indicate standard deviation. A p-value of 0.015 was calculated by a Student's unpaired t-test.

[9] = Table 3, 100 nmol iv (approximately 16 mg/kg), 24 hours post-peptide administration
[10] = Table 3, 24 hours post-peptide administration

Sequence | Plasma BUN [1, 9] [mg/dL] | Peptide BUN [2] | renal physiology (PAS histology, FIG. 24) [3] | Plasma Creatinine [4, 10] [mg/dL] | Temperature (70° C.) [5] | Trypsin (trypsin) | Pepsin (pepsin) | Reduction [6] | other results
GGYSRCQLQGFNCVVRSYGLPTIPCCRGLTCRSYFPGSTYGRCQRY [SEQ ID NO: 53] | 20.5 | 19 mg/dL and 22 mg/dL | normal renal physiology | 0.35 | – | – | – | – | –
GSACLAEYQKCEGSTVPCCPGLSCSAGRFRKTKLCTK [SEQ ID NO: 32] | – | – | – | – | Resistant | Not Resistant | Resistant | Not Resistant | –
GSDRDSCIDKSRCSKYGYYQECQDCCKKAGHNGGTCMFFKCKCA [SEQ ID NO: 21] | 20 | 23 mg/dL and 17 mg/dL | normal renal physiology | 0.33 | – | Partially Resistant | – | Not Resistant | –
GSECLEIFKACNPSNDQCCKSSKLVCSRKTRWCKYQIG [SEQ ID NO: 38] | – | – | – | – | Resistant | Not Resistant | Resistant | Not Resistant | –
GSEVIRCSGSKQCYGPCKQQTGCTNSKCMNKVCKCYGCG [SEQ ID NO: 8] | – | – | – | – | Resistant | Partially Resistant | – | Not Resistant | –
GSGCFGYKCDYYKGCCSGYVCSPTWKWCVRPGPGR [SEQ ID NO: 16] | – | – | – | – | Resistant | Not Resistant | Not Resistant | Not Resistant | –
GSGDCLPHLKRCKENNDCCSKKCKRRGANPEKRCR [SEQ ID NO: 18] | 19.5 | 21 mg/dL and 18 mg/dL | normal renal physiology | 0.43 | – | Partially Resistant | – | Partially Resistant | –
GSGVPINVKCRGSRDCLDPCKKAGMRFGKCINSKCHCTP [SEQ ID NO: 11] | – | – | – | – | – | Resistant | Resistant | Resistant | –
GSISIGIKCSPSIDLCEGQCRIRKYFTGYCSGDTCHCSG [SEQ ID NO: 7] | – | – | – | – | Resistant | Partially Resistant | – | Not Resistant | –
GSQDKCKKVYENYPVSKCQLANQCNYDCKLDKHARSGECFYDEKRNLQCICDYCEY [SEQ ID NO: 39] | 20.5 | 23 mg/dL and 18 mg/dL | normal renal physiology | 0.32 | – | Partially Resistant | – | Not Resistant | –
GSQFTDVKCTGSKQCWPVCKQMFGKPNGKCMNGKCRCYS [SEQ ID NO: 26] | 19 | 19 mg/dL | normal renal physiology | 0.33 | – | Partially Resistant | – | Not Resistant | –
GSQIDTNVKCSGSSKCVKICIDRYNTRGAKCINGRCTCYP [SEQ ID NO: 27] | – | – | – | – | Resistant | Not Resistant | Not Resistant | Not Resistant | –
GSQKILSNRCNNSSECIPHCIRIFGTRAAKCINRKCYCYP [SEQ ID NO: 20] | 25 | 29 mg/dL and 21 mg/dL | normal renal physiology | 0.5 | – | Partially Resistant | – | Resistant | –
GSSCAKPRENCNRMNILCCRGECVCPTFGDCFCYGD [SEQ ID NO: 10] | – | – | – | – | Resistant | Not Resistant | Resistant | Not Resistant | –
GSSCARPRENCNRMNILCCRGECVCPTFGDCFCYGD [SEQ ID NO: 54] | – | – | – | – | – | – | – | – | mTNFa/GAPDH (TNFa mRNA): 2.42; mHO-1/GAPDH (HO-1 mRNA): 0.65; Plasma BUN ([1]; Table 4, 100 nmol iv, time not stated for this column (mRNAs at four hours)): 26 mg/dL; Signal ratio Kidney:Blood (3 hours) ([7]; renal cortex vs blood from the ventricle, 100 nmol iv, 3 hours): 0.8; Signal ratio Kidney:Blood (24 hours) ([7]; renal cortex vs blood from the ventricle, 100 nmol iv, 24 hours): 7.2; Pixel density-Bkg/area (3 hours) ([7]; renal cortex, 100 nmol 14C labeled peptide iv, 3 hours): 1.48E+06; Pixel density-Bkg/area (24 hours) ([7]; renal cortex, 100 nmol 14C labeled peptide iv, 24 hours): 1.95E+06; mNGAL/GAPDH (NGAL mRNA): 1.58; Plasma Creatinine ([4]; Table 4, time not stated for this column (mRNAs at four hours)): 0.26 mg/dL; mMCP-1/GAPDH (MCP-1 mRNA): 0.74
GSSFGLCRLRRGFCARGRCRFPSIPIGRCSRFVQCCRRVW [SEQ ID NO: 45] | 21.5 | 21 mg/dL and 22 mg/dL | normal renal physiology | 0.39 | – | – | – | – | –
GSVFINVKCRGSPECLPKCKEAIGKSAGKCMNGKCKCYP [SEQ ID NO: 36] | 21.5 | 22 mg/dL and 21 mg/dL | normal renal physiology | 0.4 | Resistant | Not Resistant | Resistant | Not Resistant | –
GSVVIGQRCYRSPDCYSACKKLVGKATGKCTNGRCDC [SEQ ID NO: 33] | – | – | – | – | Resistant | Not Resistant | Resistant | Not Resistant | –
KKEEEKKEEEKKEEEKK [SEQ ID NO: 121, reference compound] | – | – | – | – | – | – | – | – | competition with kidney uptake of SEQ ID NO: 4-AF647 (FIG. 11) [8]: failed to compete
